Experimental data: PMC2831474 (Archives of biochemistry and biophysics, 2010)

Molecular target: preformed F-actin (chicken pectoral muscle skeletal actin polymerized with 0.1 M KCl) (chicken, UniProt P68139 1-377)
Assay: co-sedimentation

B1: N-acetylated striated muscle long α-tropomyosin (stTM) (natural protein)
chain: not shown
modifications: N-acetylated
With B1 the “stoichiometry N” value was 0.25 ± 0.03 tropomyosin/actin molar ratio.
